In the DeepSol protein solubility set:

Test: soluble on expression in E. coli; label from the status in PepcDB or PDB records

Sequence | soluble on expression in E. coli
MDWDDEYSHNSFDLHCLLNSFPGDLEFEQIFSDIDEKIEQNAASIKHCIKEIQSEINKQCPGVQLQTTTDCFEWLTNYNYSTSESSFISHGDLIKFFKTLQDLLKNEQNQEEMTLDLLWDLSCHSSVSFPSTLSGTSFHFLSRTSLHSVEDNSSMDVKSMWDDIRLHLRRFLVSKLQSHNEINNSQQKILLKKQCLQQLLFLYPESEVIIKYQNIQNKLLANLLWNCFPSYNRDSNLDVIAHGYQSTMLKLYSVIKEDFNTLCEILAPSSMVKFIKETYLDTVTEEMAKFLENFCELQFRENAVRVVKTSKSSSKHRGAVHALG | soluble
NKYNKIANELIKIIGEDNIISITHCATRLRVMVKDREIINDKKVEKVDEVKGVFFTSGQYQIILGTGIVNKVYAEVEKMGLKTLSKKEQDELVKNNE | soluble
MSYKAYPFFRDILINECIYFASKNKKLVRLNYKSEAYVGVWTEESVAVSFLTSRDIPFDKVVKMDVDRFATYELDELFDEQDHIIMNQTMEEEGHLLNVVAVTQEVMTELDKIRIKEFVQDVAKYDEVYGLTKKGSKQFILISENDSDEKKPHIMPVWSIKNRALKVRDEDFEECDLITIEGSVFGEWLDELRDDHKAVAIDLKTGVVGTIVSAQKLSNELTF | not soluble
KNTPVDAIPDLSDVQVIIKTSYPGQAPQVVEDQVTYPLTTAMLAVPGAETVRGYSFFGDSYVYIIFNDDTDMYWARSRVLEYLSQVAPKLPPNAKPTLGPDATGVGWVYSYVLQDKTGQHDLAELRSLQDWFLKYELQTVDGVSEVATVGGMVKQYQVQIDPAKLRAYNLTLQQVNMAIQNGNQETGASVVEVAEAEHMVRTTGYLTSIEDIKSLPLKVTDKGTPLLLGDIADINLGPQMRRGISELNGEGEAVGGVIVMRYGENASEVISKVKDKLEDLQRSLPDGVEIVTTYDRSTLINAAVDNLWKKLAEEFIVVAIVCALFLFHIRSS | not soluble
MPTWEELYKNAIEKAIKSVPKVKGVLLGYNTNIDAIKYLDSKDLEERIIKAGKEEVIKYSEELPDKINTVSQLLGSILWSIRRGKAAELFVESCPVRFYMKRWGWNELRMGGQAGIMANLLGGVYGVPVIVHVPQLSRLQANLFLDGPIYVPTLENGEVKLIHPKEFSGDEENCIHYIYEFPRGFRVFEFEAPRENRFIGSADDYNTTLFIREEFRESFSEVIKNVQLAILSGLQALTKENYKEPFEIVKSNLEVLNEREIPVHLEFAFTPDEKVREEILNVLGMFYSVGLNEVELASIMEILGEKKLAKELLAHDPVDPIAVTEAMLKLAKKTGVKRIHFHTYGYYLALTEYKGEHVRDALLFAALAAAAKAMKGNITSLEEIREATSVPVNEKATQVEEKLRAEYGIKEGIGEVEGYQIAFIPTKIVAKPKSTVGIGDTISSSAFIGEFSFTL | soluble
MGIHLFWDSRVPVGLSRPVSEELSAVLEMPVSRIDDGIFPLEGFDPVRNQYDAVKVLLKLDMFRRRMPQIFKPADMDLEFYNKFNHLHEKILLVTPGDLYEPLADFVFGLAYPKLGVAIVSPHRLQNEFYGKYADDSALIDRIVKEGAHEIGHLFGLGHCDNPGCIMYCPRNLDELDRKRKYFCGKCRVQLNGDTLEDDLFSLEHHHHHH | soluble
MGSDKIHHHHHHMDKKTYKLLRTLTHLSKDLYNLTLYTVKQHYELNGTFLPFVKAYHMVKDSEPYKLLPSQVAQQTMKIVERNFRSFFHVLKERKKGNYNRPVRPPKYLPKNGHFILIFPYQSFRVKEDRIILTLGKNFAEKYGVKHLEIPLPKNVKGHRIKEIRILPRYNALWFEVEYVYEVLPEERDLDRSKYLAIDLGLDNFATCVSTTGTAFIIEGRGLKSFNRWWNKEKAKLQSQYDKQGVKFGKRMVWLLKKRKNVVNDFMNKAVSYIVNYCLENGIGNVVIGELKGVKQNTDLGRRNNQNFHYIPYGLFKQKLKAKCERYGINYIEVDEAYTSKVDALTLEPIEKREKYLGKRGETWTVPVFRWCFNKC | not soluble
MGSDKIHHHHHHMNYEGKTKIVKVTGDYALLEFKDDITAGDGLKHDVLTGKGSICAETTAILMKYLSEKGIKTHLVEYIPPRTLKVIPLKMFPLEVVVRLKKAGSFVRRYGGAEGEDLPVPLVEFFIKDDERHDPMVCVDHLEILGIATKKQAEKMKEAAVKITLALKEFFERANFELWDIKYEFGLDKDGNVVLGDEISPDTFRLRKKGEIFDKDVYRRDLGDPLKKYREVLELCRSLNSQ | not soluble
PLNRLGHKIYQHSGKWLQETAAEKLNQRDQLINPGHAQVLILGMGRIGTGAYDELRARYGKISLGIEIREEAAQQHRSEGRNVISGDATDPDFWERILDTGHVKLVLLAMPHHQGNQTALEQLQRRNYKGQIAAIAEYPDQLEGLLESGVDAAFNIYSEAGSGFARHVCKQLEPQFTSIK | soluble
MSLSMLPSFGFTQEQVACVCEVLQQGGNLERLGRFLWSLPACDHLHKNESVLKAKAVVAFHRGNFRELYKILESHQFSPHNHPKMQQLWLKAHYVEAEKLRGRPLGAVGKYRVRRKFPLPRTIWDGEETSYCFKEKSRGVLREWYAHNPYPSPREKRELAEATGMTTTQVSNWFKNRRQRDRAAEAKERENTENEGHHHHHH | not soluble
MKLIVSGKNLEVTEGLREAVEKQISKLEKYFKPEVEAHVTLSVEKNRQIVEVTIPFNGVILRGEETNNDMYASIDIVGDKLERQVRKQKTKLERRKYSDSLKFQNIPDYHKEEQEPEIVKTKRFAIKPMSEEEAVLEMELLGHNFFVFQNGDSNEVNVVYKRKDGNYGLIEPEFLEHHHHHH | soluble
MSLTDNQDPLQLVQEFRSIAGEAALVCAEETEDQRDRTQFVNFELEAKLWYLVELLVSFRTSDAPMDDIELHDYNSNAVFKKAQLQEDPELYVVWLIIAWIQENLTVSPRPAELPTTKWSNTLLAGGLKSSDLDCPLREEGVQIHPKDNQDDHCFYKYMYELILAGKYEEVRRECEYSDNLTLGMIMCGLEDYVDPRIDLELAGDYEGHQGIKKRALWRRAVYALSRNPNLDKYEAAIYAFLSGTIPQDIDEQQLDWERMLLVYLNQIWNIKIENYLLEKERINKEELIEQMPSQPLSLSAVLNIVASKHVEESEHPIRVLMGAVILNTISPAVKSFIDMLLDAVKGVDQENDLLSEPYILRILTHLVIFLDKACPGVIEEGDKSKLVTTYVSLLNLYEQYDLVPVYISCLDEQDIMEAYSFFLSNLVGDSSRERQLELCYFFQLPTANILKRTAQRIFNDTEPHYNLADTVTMNSEVTDIDLHLISAVDWLMKGRLHVDAVESIIALCRRFLANGKVNSLSTFFEQHNMDDLIKNYELDQLSAKEEYPEDRFVQEIGQYTKLITGFRQYKNWENSSHTVSSSKNTSALLQQFQAFASTLRGLVTEFLVELTEHTDMPSEDRDMLYNIRSLYTPYLLIELHNSYTSTAEKLGVPSFLQEAVNLSTMVANETDKIYLLFQNSGKLKEYLHLVAKAVALIGHEGHHHHHH | not soluble
MGSDKIHHHHHHMSTYKINNEQLTLIKEMPFKLEKEIQNIVERNLQTLLGLDFIKTEFSIGSFRIDSLAFDSEKKSFVIIEYKRDKNFSVIDQGYAYLSLMLNNKAEFILEYNESKSGALKRNDVDWSQSKVLFVSPNFTTYQKEAINFKDLPIELWEIKRFTNDTLSFGQIVNRSSKESIKTVSNSEAITTVSKEIKVYSEQDHLENIKDDFLNIYTEIKEFLLSFGEDITIYPKKKTIGFKIGGKVFCDIVMQNKGIRLFLNAKKGTLKDPEGITRDVSEVGHWGNGAYEVRFPLKNDAEIDFVFNLLRQTINKNKE | not soluble
GSQPAKKTYTWNTKEEAKQAFKELLKEKRVPSNASWEQAMKMIINDPRYSALAKLSEKKQAFNAYKVQTEK | soluble
HHHHHHHMTAPAADDRIDEIERAITKSRRYQTVAPATVRRLARAALVAARGDVPDAVKRTKRGLHEIYGAFLPPSPPNYAALLRHLDSAVDAGDDEAVRAALLRAMSVHISTRERLPHLDEFYRELFRHLPRPNTLRDLACGLNPLAAPWMGLPAETVYIASDIDARLVGFVDEALTRLNVPHRTNVADLLEDRLDEPADVTLLLKTLPCLETQQRGSGWEVIDIVNSPNIVVTFPTKSLGQRSKGMFQNYSQSFESQARERSCRIQRLEIGNELIYVIQK | soluble
LKDFSFDLNVNLAKNVSNVEKLADGVDYIYFNGDSNFPINVGARPGHKLGEIYAKTLYKRDEQGNIIINKENGLPMTTTDADERLAKPIGNIQPNLLMSVSPSFTYKGITLSAIFDMKFGGDIISISEMNATGSGMAKRTMNRGESDNFMMIFPGVYEDGTPNTQKISASNYYGAQNAEDFIYDASFIKLKELAIGYTFPKSMLKKTPINSLNVSFVARNLAYLLKHTPGTSPEGGYDTTMFSQAIDFMAVPYTRTFGFSVNLGF | not soluble
MDNAHTPPFAGLTPDAILDAVESLGLRASGSLLALNSYENRVYQVGLDDAAPLVAKFYRPARWSDAAILEEHAFSLQLAEREIPAVPPLAFGGRTLHGHGGFRFALFERRGGRVPELDRDETLQWVGRFLGRIHALGRTEGYRHRPTLDMQSFGREPVDFVLGGGWLPPELEAVYRGVAEQALQGVARCFERAGPVAQLRLHGDCHVGNLLWTDAGPHFVDFDDSRMGPAVQDLWMLLSGERAEQSRQLGEVLAGYEDFCEFDLRELNLLEALRTLRLLHYSAWLARRWHDPAFPAAFPWFGAPRYWEEQILALREQIALMDEPPLWSCLEHHHHHH | not soluble
MDGNDLIRLEMKRLGPMAVEKGDLLLLSGDNNADASMWDPNSNGPKSYQSQVAGLRLAAGGVFHVLTLKSAGEATLSIHFVFPSRTDPGRQVQMWVRRVGRSFQGAGSGYVLMNMRHVVNVQGKTIHTQTGNTVCLDDITDDCYLDREGRFVFVKSPVGSPPSMIAVGYTNSDGTQDLAELILTESACPEMLHVFSTLEFPD | soluble
MTPFSDAAKNNTVKTDGDSVSGRDLPITKISEDRFERSAYSAQLANIICDVAPWGASTVFSLTGQWGSGKTSLVNLIRSEESLSNEKWTIVDFNPWVASDPQSLIEEFYRVIVGTVPDDKTGQKIKTVLQKTFSTIGSIAGGVGGFGVLEALALSKGVDAANAVYKTWKQEQDSWPTLYTRAANHFKDLNKRILIVVDDIDRLHTDELALLMKVIRLLGRFPQVNYLLVYEEESLLTTLARSTAVGGSEDDALRFMEKIVQYPFDVPPLTSFQIEKELSALFDKLFQGVSLSGDPEDFALVKSRMFDVWEKTLVTPRLLHRFAALLTNWTRIYGSGEVNGVDLTILATIRIVFPSVYKRLSRAKEVLLQGLEHHHHHH | not soluble
MLIKLTGGTVYDPANGIDGQVRNLFIRDGRIVHSLNGATPDQEYDLRGKVVMAGAIDMHTHIGGGKVTIARNLLPEDHRADPEPRRGLMRAGCGHAAPSTLTTGYRYAEMGYTAGFEPAVLPINARQAHMEMADVPLLDVGGYVMLGSDDFFLRLLSAGSDQKLINDYVAWTIRSAKAIGIKVVNPGGISAFKFNQRMLDLDEKHVYYGVTPRQILKSLARAVHELGVPHPLHVHGCNLGVPGNVETTLNTISGIEGLPMHLTHIQFHSYGVEGDRKFSSGAARIAEAINANKNITIDVGQILFGQTVTASGDSMRQHANAGHAHPDKWVCMDIECDAGCGVVPFKYRDKNFVNALQWCIGLETFLLIDDPWRVFLTTDHPNGAPFTTYPHLIRLLMDKSFRNDMLATINPEAAALSTLGSIDREYSLYEIAIMTRAGAARLLGLTDRGHLGAGAAADITVYTDQADKEKMFTRPDYVFKDGELVVRNGEVVKVVWGNLHTVQPEFDNGIEARLRDYFDRYHTMKLDNFVINDWEIEGDGRSKILVHPCHQGTRSLEHHHHHH | not soluble
TPIINDPETVKLFLLTELQHEEREVFMVLFLDNQHRLIKKERLFLGTIYVSAVYPREIIKEALYCNAAALILAHNHPSGITEPSYSDQLITKKIQDAAELMEIRVLDHLIVGKSDCYSFAENCLL | not soluble
